In the FLAb antibody collection:

B1: unnamed (protein)
chain 1: QVQLVQSGAEVKKPGASVKVSCKASGYTFTNYGLSWVRQAPGQGLEWMGWISANNGDTNYGQEFQGRVTMTTDTSTSTAYMELRSLRSDDTAVYYCARDSSSSWARWFFDLWGRGTLVTVSS
chain 2: SYVLTQPPSVSVAPGKTARITCGGNIIGSKLVHWYQQKPGQAPVLVIYDDGDRPSGIPERFSGSNSGNTATLTISRVEAGDEADYYCQVWDTGSDPVVFGGGTKLTVL
B2: unnamed (protein)
chain 1: EVQMVQSGAEVKKPGEPLKISCKGSGYKFGTHWIGWVRQRPGKGLEWMGIIHPADSETKYSPSFQGQVSFSADKSSNTAYLHWSTLRASDTAMYYCARRSGSSSWYALDFWGQGTMVTVSS
chain 2: QSVLTQSPSASGTPGQRVTISCSGGSSNIGSNTVNWYQQFPGAAPKLLIYTNNQRPSGVPDRFSGSKSGTSASLAISGLQSEDEADYYCATWDDSLNGLYVFGTGTKVTVL
B3: unnamed (protein)
chain 1: QVQLQESGPGLVRPSQTLSLTCTVSGYSITSDHAWSWVRQPPGRGLEWIGYISYSGITTYNPSLKSRVTMLRDTSKNQFSLRLSSVTAADTAVYYCARSLARTTAMDYWGQGSLVTVSS
chain 2: DIQMTQSPSSLSASVGDRVTITCRASQDISSYLNWYQQKPGKAPKLLIYYTSRLHSGVPSRFSGSGSGTDFTFTISSLQPEDIATYYCQQGNTLPYTFGQGTKVEIK
B4: unnamed (protein)
chain 1: EVQLVQSGAEVKKPGASVKVSCKASGYTFTSYVIHWVRQRPGQGLAWMGYINPYNDGTKYNERFKGKVTITSDRSTSTVYMELSSLRSEDTAVYLCGREGIRYYGLLGDYWGQGTLVTVSS
chain 2: DIQMTQSPSSLSASVGDRVTITCGTSEDIINYLNWYQQKPGKAPKLLIYHTSRLQSGVPSRFSGSGSGTDFTLTISSLQPEDFATYYCQQGYTLPYTFGQGTKVEIK
B5: unnamed (protein)
chain 1: QVQLQQSGAEVKKPGSSVRVSCKASGGTFNNNAINWVRQAPGQGLEWMGGIIPMFGTAKYSQNFQGRVAITADESTGTASMELSSLRSEDTAVYYCARSRDLLLFPHHALSPWGRGTMVTVSS
chain 2: SSELTQDPAVSVALGQTVRVTCQGDSLRSYYASWYQQKPGQAPVLVIYGKNNRPSGIPDRFSGSSSGNTASLTITGAQAEDEADYYCSSRDSSGNHWVFGGGTELTVL
B6: unnamed (protein)
chain 1: QVQLQQPGAELVRPGASVKLSCKASGYTFTSYWINWVKQRPGQGLEWIGNIYPSDSYTNYNQKFKDKATLTVDKSSSTAYMQLSSPTSEDSAVYYCTRSWRGNSFDYWGQGTTLTVSS
chain 2: DIVMTQSPSSLTVTAGEKVTMSCKSSQSLLNSGNQKNYLTWYQQKPGQPPKLLIYWASTRESGVPDRFTGSGSGTDFTLTISSVQAEDLAVYYCQNDYSYPFTFGSGTKLEIK
B7: unnamed (protein)
chain 1: QGQLVQSGAEVKKPGASVKVSCKASGYTFTDYEMHWVRQAPIHGLEWIGVIESETGGTAYNQKFKGRVTITADKSTSTAYMELSSLRSEDTAVYYCAREGITTVATTYYWYFDVWGQGTTVTVSS
chain 2: DVVMTQSPLSLPVTLGQPASISCRSSQSIVHSNGNTYLEWYLQKPGQSPQLLIYKVSNRFSGVPDRFSGSGSGTDFTLKISRVEAEDVGVYYCFQGSHVPLTFGQGTKLEIK
B8: unnamed (protein)
chain 1: QVELVESGGGLVQPGGSLRLSCAASGFTFTSYWMSWVRQAPGKGLELVSSITSYGSFTYYADSVKGRFTISRDNSKNTLYLQMNSLRAEDTAVYYCARNMYTHFDSWGQGTLVTVSS
chain 2: DIVLTQPPSVSGAPGQRVTISCSGSSSNIGSNSVSWYQQLPGTAPKLLIYDNSKRPSGVPDRFSGSKSGTSASLAITGLQSEDEADYYCQSRDTYGYYWVFGGGTKLTVL
B9: unnamed (protein)
chain 1: QVQLVQSGAEVKKPGASVKVSCKGSGYTFTSYWMHWVRQAPGQRLEWIGEIDPSESNTNYNQKFKGRVTLTVDISASTAYMELSSLRSEDTAVYYCARGGYDGWDYAIDYWGQGTLVTVSS
chain 2: DVVMTQSPLSLPVTPGEPASISCRSSQSLAKSYGNTYLSWYLQKPGQSPQLLIYGISNRFSGVPDRFSGSGSGTDFTLKISRVEAEDVGVYYCLQGTHQPYTFGQGTKVEIK
B10: unnamed (protein)
chain 1: EVQLVQSGAEVKKPGESLRISCKGSGYSFSTYWISWVRQMPGKGLEWMGKIYPGDSYTNYSPSFQGQVTISADKSISTAYLQWSSLKASDTAMYYCARGYGIFDYWGQGTLVTVSS
chain 2: SYELTQPPSVSVSPGQTASITCSGDNIGDQYAHWYQQKPGQSPVLVIYQDKNRPSGIPERFSGSNSGNTATLTISGTQAMDEADYYCATYTGFGSLAVFGGGTKLTVL
B11: unnamed (protein)
chain 1: QVQLVESGGGLVKPGGSLRLSCAASGFTFSDYYMNWIRQAPGKGLEWVSYISSSGSIIYYADSVKGRFTISRDNAKNSLYLQMNSLRAEDTAVYYCAREGRIAARGMDVWGQGTTVTVSS
chain 2: DIQMTQSPSSLSASVGDRVSITCRPSQSFSRYINWYQQKPGKAPKLLIHAASSLVGGVPSRFSGSGSGTDFTLTISSLQPEDFATYYCQQTYSNPPITFGQGTRLEMK
B12: unnamed (protein)
chain 1: QVQLVESGGGVVQPGRSLRLSCAASGFTFSTYGMHWVRQAPGKGLEWVAVIWDDGSYKYYGDSVKGRFTISRDNSKNTLYLQMNSLRAEDTAVYYCARDGITMVRGVMKDYFDYWGQGTLVTVSS
chain 2: AIQLTQSPSSLSASVGDRVTITCRASQDISSALVWYQQKPGKAPKLLIYDASSLESGVPSRFSGSESGTDFTLTISSLQPEDFATYYCQQFNSYPLTFGGGTKVEIK
B13: unnamed (protein)
chain 1: EVQLVQSGAEVKKPGESLKISCKGSGYSFTTYWLGWVRQMPGKGLDWIGIMSPVDSDIRYSPSFQGQVTMSVDKSITTAYLQWNSLKASDTAMYYCARRRPGQGYFDFWGQGTLVTVSS
chain 2: DIQMTQSPSSLSASVGDRVTITCRASQGISSWLAWYQQKPEKAPKSLIYAASSLQSGVPSRFSGSGSGTDFTLTISSLQPEDFATYYCQQYNIYPYTFGQGTKLEIK
B14: unnamed (protein)
chain 1: QVQLVESGGGVVQPGRSLRLSCAASGFTFSSYDMHWVRQAPGKGLEWVAVIWYDGSNKYYADSVKGRFTISRDNSKNTLYLQMNSLRAEDTAVYYCARGSGNWGFFDYWGQGTLVTVSS
chain 2: DIQMTQSPSSLSASVGDRVTITCRASQGISRWLAWYQQKPEKAPKSLIYAASSLQSGVPSRFSGSGSGTDFTLTISSLQPEDFATYYCQQYNTYPRTFGQGTKVEIK
B15: unnamed (protein)
chain 1: QVQLQESGPGLVKPSETLSLTCTVSGFSLTNYGIHWIRQPPGKGLEWLGVIWARGFTNYNSALMSRLTISKDNSKNQVSLKLSSVTAADTAVYYCARANDGVYYAMDYWGQGTLVTVSS
chain 2: DFVMTQSPAFLSVTPGEKVTITCSAQSSVNYIHWYQQKPDQAPKKLIYDTSKLASGVPSRFSGSGSGTDYTFTISSLEAEDAATYYCQQWTTNPLTFGQGTKVEIK
B16: unnamed (protein)
chain 1: QVQLQQSGAEVKKPGSSVKVSCKASGYTFTSYNMHWVKQAPGQGLEWIGAIYPGMGDTSYNQKFKGKATLTADESTNTAYMELSSLRSEDTAFYYCARSTYYGGDWYFDVWGQGTTVTVSS
chain 2: DIQLTQSPSSLSASVGDRVTMTCRASSSVSYIHWFQQKPGKAPKPWIYATSNLASGVPVRFSGSGSGTDYTFTISSLQPEDIATYYCQQWTSNPPTFGGGTKLEIK
B17: unnamed (protein)
chain 1: QAYLQQSGAELVRPGASVKMSCKASGYTFTSYNMHWVKQTPRQGLEWIGAIYPGNGDTSYNQKFKGKATLTVDKSSSTAYMQLSSLTSEDSAVYFCARVVYYSNSYWYFDVWGTGTTVTVSG
chain 2: QIVLSQSPAILSASPGEKVTMTCRASSSVSYMHWYQQKPGSSPKPWIYAPSNLASGVPARFSGSGSGTSYSLTISRVEAEDAATYYCQQWSFNPPTFGAGTKLELK
B18: unnamed (protein)
chain 1: QAYLQQSGAELVRPGASVKMSCKASGYTFTSYNMHWVKQTPRQGLEWIGGIYPGNGDTSYNQKFKGKATLTVGKSSSTAYMQLSSLTSEDSAVYFCARYDYNYAMDYWGQGTSVTVSS
chain 2: QIVLSQSPAILSASPGEKVTMTCRASSSVSYMHWYQQKPGSSPKPWIYATSNLASGVPARFSGSGSGTSYSFTISRVEAEDAATYYCQQWTFNPPTFGGGTRLEIK
B19: unnamed (protein)
chain 1: QVKLQESGAELARPGASVKLSCKASGYTFTNYWMQWVKQRPGQGLDWIGAIYPGDGNTRYTHKFKGKATLTADKSSSTAYMQLSSLASEDSGVYYCARGEGNYAWFAYWGQGTTVTVSS
chain 2: DIELTQSPASLSASVGETVTITCQASENIYSYLAWHQQKQGKSPQLLVYNAKTLAGGVSSRFSGSGSGTHFSLKIKSLQPEDFGIYYCQHHYGILPTFGGGTKLEIK

Test: patients with anti-drug antibodies; higher = more immunogenic

With B1 as the protein, how does the “patients with anti-drug antibodies” value read?
The value was 0.5%.

For B2, which “patients with anti-drug antibodies” value is on record?
Its value is 2.1%.

With B3 as the protein, how does the “patients with anti-drug antibodies” value read?
The value was 2%.

Which “patients with anti-drug antibodies” value does the source give for B4 here?
The value was 13%.

For B5, which “patients with anti-drug antibodies” value is on record?
Its value is 2.4%.

Which “patients with anti-drug antibodies” value does the source give for B6 here?
The value was 0%.

With B7 as the protein, how does the “patients with anti-drug antibodies” value read?
Its value is 1%.

Which “patients with anti-drug antibodies” value does the source give for B8 here?
The value was 2.3%.

With B9 as the protein, how does the “patients with anti-drug antibodies” value read?
The value was 9.5%.

For B10, which “patients with anti-drug antibodies” value is on record?
The value was 40.7%.

Which “patients with anti-drug antibodies” value does the source give for B11 here?
Its value is 2.9%.

With B12 as the protein, how does the “patients with anti-drug antibodies” value read?
Its value is 0%.

Which “patients with anti-drug antibodies” value does the source give for B13 here?
Its value is 4%.

For B14, which “patients with anti-drug antibodies” value is on record?
Its value is 0%.

For B15, which “patients with anti-drug antibodies” value is on record?
Its value is 2.6%.

For B16, which “patients with anti-drug antibodies” value is on record?
The value was 19.5%.

For B17, which “patients with anti-drug antibodies” value is on record?
The value was 45.5%.

Which “patients with anti-drug antibodies” value does the source give for B18 here?
The value was 0%.

For B19, which “patients with anti-drug antibodies” value is on record?
The value was 68.1%.
